Results as given in patent US20220204580A1 (AstraZeneca / MedImmune, published 2022).
Numbered stars: 1 amine (or outer) side, 2 acyl side, 3 side chain; on linkers, the order of the positions; unused ones are H or OH. Bridge positions count the residues as written; N and C are the ends. Square brackets hold non-standard residues; d marks the D form. Side chains are listed from the residue outwards. Ends that are not written are not given here. * marks the point of attachment. C18 diacid = O=C(O)CCCCCCCCCCCCCCCCC(=O)*; γGlu = O=C(O)[C@H](CCC(=O)[*:2])N[*:1]; Aib = CC(C)(N)C(=O)O

T1: human amylin receptor (calcitonin receptor co-expressed with receptor activity modifying protein, RAMP3) (human, UniProt P30988 25-474; O60896 24-148)
T1 sequence (looked up) 1: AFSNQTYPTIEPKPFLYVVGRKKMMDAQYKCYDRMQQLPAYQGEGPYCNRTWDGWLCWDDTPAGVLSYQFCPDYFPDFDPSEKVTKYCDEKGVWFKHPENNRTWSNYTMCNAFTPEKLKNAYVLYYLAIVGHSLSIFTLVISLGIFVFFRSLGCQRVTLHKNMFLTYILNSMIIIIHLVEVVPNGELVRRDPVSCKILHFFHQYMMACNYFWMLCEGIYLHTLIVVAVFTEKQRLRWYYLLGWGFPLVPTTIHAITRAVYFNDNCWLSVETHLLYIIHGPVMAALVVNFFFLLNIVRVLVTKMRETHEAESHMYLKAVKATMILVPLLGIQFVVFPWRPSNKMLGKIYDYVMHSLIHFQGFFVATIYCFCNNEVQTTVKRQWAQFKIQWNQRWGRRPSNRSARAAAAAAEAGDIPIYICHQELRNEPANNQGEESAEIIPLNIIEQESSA
T1 sequence (looked up) 2: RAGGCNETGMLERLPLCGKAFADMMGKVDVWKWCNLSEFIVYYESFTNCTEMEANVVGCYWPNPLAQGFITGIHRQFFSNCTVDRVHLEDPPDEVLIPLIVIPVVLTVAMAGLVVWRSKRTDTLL

T2: human calcitonin receptor (human, UniProt P30988 25-474)
T2 sequence (looked up): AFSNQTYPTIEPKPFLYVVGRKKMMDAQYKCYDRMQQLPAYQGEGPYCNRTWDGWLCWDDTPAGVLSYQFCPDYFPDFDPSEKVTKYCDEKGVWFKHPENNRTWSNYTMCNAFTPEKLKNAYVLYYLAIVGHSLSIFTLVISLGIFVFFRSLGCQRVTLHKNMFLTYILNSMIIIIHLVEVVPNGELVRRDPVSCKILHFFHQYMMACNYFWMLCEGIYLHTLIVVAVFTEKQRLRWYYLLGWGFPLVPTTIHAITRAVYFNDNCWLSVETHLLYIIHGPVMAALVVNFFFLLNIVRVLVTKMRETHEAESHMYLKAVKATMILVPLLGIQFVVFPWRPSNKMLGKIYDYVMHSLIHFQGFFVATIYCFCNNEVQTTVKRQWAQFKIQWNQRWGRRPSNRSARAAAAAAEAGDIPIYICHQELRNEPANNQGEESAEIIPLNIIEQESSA


Tests used:
[1] = biological target: T1, human amylin receptor (calcitonin …); assay: cell-based or functional assay
[2] = biological target: T2, human calcitonin receptor; assay: cell-based or functional assay

EC50 (cAMP production) [1] | Ratio (EC50 hCTR / EC50 hAMYR3) [1] | EC50 (cAMP production) [2] | Binder
0.574 nM | 2.7 | 1.54 nM | K([γGlu-C18 diacid])KCNTATCATQRLANFL[Aib]HSSGNFGPILPPTNVGSNTY-NH2 (disulfide 3-8; N-terminus assumed; SMILES CC[C@H](C)[C@H](NC(=O)[C@@H]1CCCN1C(=O)CNC(=O)[C@H](Cc1ccccc1)NC(=O)[C@H](CC(N)=O)NC(=O)CNC(=O)[C@H](CO)NC(=O)[C@H](CO)NC(=O)[C@H](Cc1c[nH]cn1)NC(=O)C(C)(C)NC(=O)[C@H](CC(C)C)NC(=O)[C@H](Cc1ccccc1)NC(=O)[C@H](CC(N)=O)NC(=O)[C@H](C)NC(=O)[C@H](CC(C)C)NC(=O)[C@H](CCCNC(=N)N)NC(=O)[C@H](CCC(N)=O)NC(=O)[C@@H](NC(=O)[C@H](C)NC(=O)[C@@H]1CSSC[C@H](NC(=O)[C@H](CCCCN)NC(=O)[C@@H](N)CCCCNC(=O)CC[C@H](NC(=O)CCCCCCCCCCCCCCCCC(=O)O)C(=O)O)C(=O)N[C@@H](CC(N)=O)C(=O)N[C@@H]([C@@H](C)O)C(=O)N[C@@H](C)C(=O)N[C@@H]([C@@H](C)O)C(=O)N1)[C@@H](C)O)C(=O)N[C@@H](CC(C)C)C(=O)N1CCC[C@H]1C(=O)N1CCC[C@H]1C(=O)N[C@H](C(=O)N[C@@H](CC(N)=O)C(=O)N[C@H](C(=O)NCC(=O)N[C@@H](CO)C(=O)N[C@@H](CC(N)=O)C(=O)N[C@H](C(=O)N[C@@H](Cc1ccc(O)cc1)C(N)=O)[C@@H](C)O)C(C)C)[C@@H](C)O) [Peptide 154 (SEQ ID NO: 154)]
0.329 nM | 11.9 | 3.93 nM | K([γGlu-C18 diacid])CNTATCATQRLANFL[Aib]HSSNNFGPILPPTRVGSNTY-NH2 (disulfide 2-7; N-terminus assumed; SMILES CC[C@H](C)[C@H](NC(=O)[C@@H]1CCCN1C(=O)CNC(=O)[C@H](Cc1ccccc1)NC(=O)[C@H](CC(N)=O)NC(=O)[C@H](CC(N)=O)NC(=O)[C@H](CO)NC(=O)[C@H](CO)NC(=O)[C@H](Cc1c[nH]cn1)NC(=O)C(C)(C)NC(=O)[C@H](CC(C)C)NC(=O)[C@H](Cc1ccccc1)NC(=O)[C@H](CC(N)=O)NC(=O)[C@H](C)NC(=O)[C@H](CC(C)C)NC(=O)[C@H](CCCNC(=N)N)NC(=O)[C@H](CCC(N)=O)NC(=O)[C@@H](NC(=O)[C@H](C)NC(=O)[C@@H]1CSSC[C@H](NC(=O)[C@@H](N)CCCCNC(=O)CC[C@H](NC(=O)CCCCCCCCCCCCCCCCC(=O)O)C(=O)O)C(=O)N[C@@H](CC(N)=O)C(=O)N[C@@H]([C@@H](C)O)C(=O)N[C@@H](C)C(=O)N[C@@H]([C@@H](C)O)C(=O)N1)[C@@H](C)O)C(=O)N[C@@H](CC(C)C)C(=O)N1CCC[C@H]1C(=O)N1CCC[C@H]1C(=O)N[C@H](C(=O)N[C@@H](CCCNC(=N)N)C(=O)N[C@H](C(=O)NCC(=O)N[C@@H](CO)C(=O)N[C@@H](CC(N)=O)C(=O)N[C@H](C(=O)N[C@@H](Cc1ccc(O)cc1)C(N)=O)[C@@H](C)O)C(C)C)[C@@H](C)O) [Peptide 155 (SEQ ID NO: 155)]
